The values below come from patent publication US20230265184A1.

This assay addresses m19-humBBz CAR (mouse; human) (UniProt P01731). Put plainly: cell-based or functional assay.

B1: TRAF3 DN (382-568aa) (protein, UniProt Q13114 382-568, looked up, not shown: small tags and cut ends; large carriers)
chain: ESQLSRHDQMLSVHDIRLADMDLRFQVLETASYNGVLIWKIRDYKRRKQEAVMGKTLSLYSQPFYTGYFGYKMCARVYLNGDGMGKGTHLSLFFVIMRGEYDALLPWPFKQKVTLMLMDQGSSRRHLGDAFKPDPNSSSFKKPTGEMNIASGCPVFVAQTVLENGTYIKDDTIFIKVIVDTSDLPDP
Consider B1, for which the NF-κB signaling in NF-κB/293/GFP-Luc reporter cells, GFP % is 30.8% and the NF-κB signaling in NF-κB/293/GFP-Luc reporter cells, GFP MFI was found to be 6060 MFI.

B2: TRAF1 DN (184-417aa) (protein, UniProt Q13077 184-416, looked up, not shown: small tags and cut ends; large carriers)
chain: EKLLAELEGKLRVFENIVAVLNKEVEASHLALATSIHQSQLDRERILSLEQRVVELQQTLAQKDQALGKLEQSLRLMEEASFDGTFLWKITNVTRRCHESACGRTVSLFSPAFYTAKYGYKLCLRLYLNGDGTGKRTHLSLFIVIMRGEYDALLPWPFRNKVTFMLLDQNNREHAIDAFRPDLSSASFQRPQSETNVASGCPLFFPLSKLQSPKHAYVKDDTMFLKCIVETST
For the molecule B2, the NF-κB signaling in NF-κB/293/GFP-Luc reporter cells, GFP % came out at 13.4% and the NF-κB signaling in NF-κB/293/GFP-Luc reporter cells, GFP MFI was found to be 1690 MFI.

B3: TRAF2 DN (87-501aa) (protein, UniProt Q12933 87-501, looked up, not shown: small tags and cut ends; large carriers)
chain: SSSAFPDNAARREVESLPAVCPSDGCTWKGTLKEYESCHEGRCPLMLTECPACKGLVRLGEKERHLEHECPERSLSCRHCRAPCCGADVKAHHEVCPKFPLTCDGCGKKKIPREKFQDHVKTCGKCRVPCRFHAIGCLETVEGEKQQEHEVQWLREHLAMLLSSVLEAKPLLGDQSHAGSELLQRCESLEKKTATFENIVCVLNREVERVAMTAEACSRQHRLDQDKIEALSSKVQQLERSIGLKDLAMADLEQKVLEMEASTYDGVFIWKISDFARKRQEAVAGRIPAIFSPAFYTSRYGYKMCLRIYLNGDGTGRGTHLSLFFVVMKGPNDALLRWPFNQKVTLMLLDQNNREHVIDAFRPDVTSSSFQRPVNDMNIASGCPLFCPVSKMEAKNSYVRDDAIFIKAIVDLTGL
Molecule B3 gave an NF-κB signaling in NF-κB/293/GFP-Luc reporter cells, GFP MFI of 14300 MFI and an NF-κB signaling in NF-κB/293/GFP-Luc reporter cells, GFP+% of 63.5%.
